Data reported in CN111303280A (INST MILITARY MEDICINE ACADEMY MILITARY SCIENCES PLA, dated 2020).

How the values were obtained:
SARS-CoV-2 S2抗原 (重组) = target: T1, SARS-CoV-2 S2抗原 (重组) (SARS-CoV-2, UniProt P0DTC2 686-1213); experiment: ELISA, coated S2 antigen 2 μg/mL
T1 construct: domain: S2

SARS-CoV-2 RBD抗原 (重组) = target: T2, SARS-CoV-2 RBD抗原 (重组) (SARS-CoV-2, UniProt P0DTC2 319-541); experiment: ELISA, coated RBD antigen 2 μg/mL
T2 construct: domain: RBD

[1] = target: T3, SARS-CoV-2 刺突糖蛋白S (重组S抗原) (SARS-CoV-2, UniProt P0DTC2 16-1213); experiment: ELISA, coated S antigen 2 μg/mL, HRP anti-human Fc
[2] = target: T3, SARS-CoV-2 刺突糖蛋白S (重组S抗原); experiment: BLI (Fortebio Octet QKe), 4A8 captured on AHC sensors, S protein as analyte

B1: 抗SARS-CoV-2全人源单克隆抗体4A8 (antibody, V domains shown)
VH: EVQLVESGAEVKKPGASVKVSCKVSGYTLTELSMHWVRQAPGKGLEWMGGFDPEDGETMYAQKFQGRVTMTEDTSTDTAYMELSSLRSEDTAVYYCATSTAVAGTPDLFDYYYGMDVWGQGTTVTVSS
VL: EIVMTQSPLSSPVTLGQPASISCRSSQSLVHSDGNTYLSWLQQRPGQPPRLLIYKISNRFSGVPDRFSGSGAGTDFTLKISRVEAEDVGVYYCTQATQFPYTFGQGTKVDIK
notes: also called 单抗4A8
SARS-CoV-2 S2抗原 (重组)
  binding result: no binding (tested: 首孔9ug/ml)
SARS-CoV-2 RBD抗原 (重组)
  binding result: no binding (tested: 首孔9ug/ml)
[1]
  EC50: 4.6 ng/mL
[2]
  Kd: 1 nM
  koff: 7.77e-05 s⁻¹
  kon: 77500 M⁻¹ s⁻¹
